Literature values, collected in paper PMC5662687.

Biological target: ICAM-1 (Homo sapiens) (UniProt P05362)
Sequence (P05362 28-480): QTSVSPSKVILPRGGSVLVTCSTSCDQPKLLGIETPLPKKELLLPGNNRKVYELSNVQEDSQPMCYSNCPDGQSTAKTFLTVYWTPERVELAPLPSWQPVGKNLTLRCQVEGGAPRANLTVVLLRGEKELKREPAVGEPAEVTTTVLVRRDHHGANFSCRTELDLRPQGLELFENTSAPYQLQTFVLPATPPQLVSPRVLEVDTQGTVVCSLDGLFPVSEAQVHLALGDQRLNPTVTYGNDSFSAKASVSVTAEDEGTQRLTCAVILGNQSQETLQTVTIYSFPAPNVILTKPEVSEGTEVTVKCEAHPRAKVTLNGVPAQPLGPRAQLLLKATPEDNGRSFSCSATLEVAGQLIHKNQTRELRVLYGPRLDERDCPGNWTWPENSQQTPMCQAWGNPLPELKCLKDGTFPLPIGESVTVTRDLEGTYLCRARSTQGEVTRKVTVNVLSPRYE

Chain of LFA-1 (P20701 26-1090): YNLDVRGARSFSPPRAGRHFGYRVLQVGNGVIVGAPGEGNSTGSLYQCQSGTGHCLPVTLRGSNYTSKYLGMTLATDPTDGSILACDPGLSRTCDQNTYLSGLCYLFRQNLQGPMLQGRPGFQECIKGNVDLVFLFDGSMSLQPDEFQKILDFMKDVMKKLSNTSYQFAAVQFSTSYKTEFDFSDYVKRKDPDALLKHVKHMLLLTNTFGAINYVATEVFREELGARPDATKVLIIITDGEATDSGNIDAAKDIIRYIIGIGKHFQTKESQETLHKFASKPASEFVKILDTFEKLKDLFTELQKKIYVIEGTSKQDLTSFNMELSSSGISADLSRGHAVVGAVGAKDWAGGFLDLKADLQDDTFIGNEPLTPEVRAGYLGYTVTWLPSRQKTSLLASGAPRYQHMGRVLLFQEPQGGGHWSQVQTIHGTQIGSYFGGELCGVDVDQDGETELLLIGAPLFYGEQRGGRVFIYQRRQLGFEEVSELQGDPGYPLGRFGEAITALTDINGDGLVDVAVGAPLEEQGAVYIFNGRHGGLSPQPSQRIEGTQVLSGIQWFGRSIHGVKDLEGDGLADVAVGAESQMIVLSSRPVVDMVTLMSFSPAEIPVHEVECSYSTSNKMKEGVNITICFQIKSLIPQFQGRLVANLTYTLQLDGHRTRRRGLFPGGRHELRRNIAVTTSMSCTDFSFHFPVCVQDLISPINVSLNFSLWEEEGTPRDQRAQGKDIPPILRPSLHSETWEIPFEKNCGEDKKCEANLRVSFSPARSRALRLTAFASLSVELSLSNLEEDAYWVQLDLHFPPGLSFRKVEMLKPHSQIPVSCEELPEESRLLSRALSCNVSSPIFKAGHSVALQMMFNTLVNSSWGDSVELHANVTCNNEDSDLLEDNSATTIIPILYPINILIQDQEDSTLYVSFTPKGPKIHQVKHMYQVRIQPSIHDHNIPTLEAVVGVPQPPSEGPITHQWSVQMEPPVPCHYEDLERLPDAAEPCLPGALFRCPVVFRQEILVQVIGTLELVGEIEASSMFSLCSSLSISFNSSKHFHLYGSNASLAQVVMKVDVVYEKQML
Chain of LFA-1 (P05107 23-700, further chain): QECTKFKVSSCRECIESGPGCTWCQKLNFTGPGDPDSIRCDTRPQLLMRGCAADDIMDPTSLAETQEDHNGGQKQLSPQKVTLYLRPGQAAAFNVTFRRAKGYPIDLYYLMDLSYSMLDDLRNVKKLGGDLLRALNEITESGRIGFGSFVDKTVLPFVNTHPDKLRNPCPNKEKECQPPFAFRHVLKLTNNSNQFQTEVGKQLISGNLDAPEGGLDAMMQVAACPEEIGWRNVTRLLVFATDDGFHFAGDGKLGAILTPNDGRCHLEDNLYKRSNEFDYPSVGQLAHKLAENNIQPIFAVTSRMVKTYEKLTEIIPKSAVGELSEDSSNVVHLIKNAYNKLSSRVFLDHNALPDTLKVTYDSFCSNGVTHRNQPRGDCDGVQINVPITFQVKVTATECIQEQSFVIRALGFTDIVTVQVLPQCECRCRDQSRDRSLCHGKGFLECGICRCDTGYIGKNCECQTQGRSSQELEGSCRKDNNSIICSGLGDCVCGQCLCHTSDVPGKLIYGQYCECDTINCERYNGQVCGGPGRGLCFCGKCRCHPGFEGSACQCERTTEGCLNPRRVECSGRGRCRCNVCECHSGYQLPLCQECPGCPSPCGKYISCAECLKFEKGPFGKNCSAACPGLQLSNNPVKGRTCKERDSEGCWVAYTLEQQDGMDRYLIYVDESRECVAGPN

Substance: LFA-1 (from UniProt P20701)
- Kd: 1 mM
